Test [1] deals with acetylcholine receptor. Kind of test: SPR, AchR immobilized on CM5 chip, peptide at 10 uM.
In test [2] the target is acetylcholine receptor. Briefly: SPR, receptor immobilized on CM5 chip, peptide 10 uM.

From patent publication US20250011363A1, “OPTIMIZED SHORTENED PEPTIDE THAT BINDS TO ACETYLCHOLINE RECEPTOR, AND USE THEREOF” (SKINMED CO., LTD., priority 2021, published 2025) come the findings set out here.

B1: 5mer-718 (peptide)
peptide: RNKKK
With B1, the Binding affinity (RU) with acetylcholine receptor [1] is 19 RU.

B2: 5mer-1016 (peptide)
peptide: KYTMR
In turn, B2 had a Binding affinity (RU) with acetylcholine receptor [1] of 28 RU.

B3: 5mer-741 (peptide)
peptide: KPTPR
Regarding B3, the Binding affinity (RU) in the test with acetylcholine receptor [1] came to 14 RU.

B4: 5mer-1033 (peptide)
peptide: REWDK
In turn, B4 came in with a Binding affinity (RU) in the test with acetylcholine receptor [1] of 28 RU.

B5: 5mer-1031 (peptide)
peptide: RKEER
In the test with acetylcholine receptor [1], B5 yielded a Binding affinity (RU) of 13 RU.

B6: 5mer-746 (peptide)
peptide: RMTVK
Turning to B6, the Binding affinity (RU) with acetylcholine receptor [1] stood at 26 RU.

B7: 5mer-1039 (peptide)
peptide: KKDVK
The molecule B7 returned a Binding affinity (RU) with acetylcholine receptor [1] of 32 RU.

B8: 5mer-1036 (peptide)
peptide: KTHMK
Regarding B8, the Binding affinity (RU) in the test with acetylcholine receptor [1] worked out at 23 RU.

B9: 5mer-1025 (peptide)
peptide: RHKWK
In the test with acetylcholine receptor [1], B9 registered a Binding affinity (RU) of 25 RU.

B10: 5mer-1048 (peptide)
peptide: KYDNK
Take B10: in the test with acetylcholine receptor [1], the Binding affinity (RU) amounted to 12 RU.

B11: 5mer-1021 (peptide)
peptide: KITHK
Consider B11, for which the Binding affinity (RU) in the test with acetylcholine receptor [1] was determined as 26 RU.

B12: 5mer-1032 (peptide)
peptide: RHHMR
In the test with acetylcholine receptor [1], B12 registered a Binding affinity (RU) of 23 RU.

B13: 5mer-731 (peptide)
peptide: KADHK
In the case of B13, the Binding affinity (RU) with acetylcholine receptor [1] is 18 RU.

B14: 5mer-1022 (peptide)
peptide: KIADK
In turn, B14 came in with a Binding affinity (RU) with acetylcholine receptor [1] of 29 RU.

B15: 5mer-722 (peptide)
peptide: KNHKK
Consider B15, for which the Binding affinity (RU) in the test with acetylcholine receptor [1] turned out to be 33 RU.

B16: 5mer-729 (peptide)
peptide: KEPDK
B16 yielded a Binding affinity (RU) in the test with acetylcholine receptor [1] of 23 RU.

B17: 5mer-748 (peptide)
peptide: REPMK
In turn, B17 registered a Binding affinity (RU) with acetylcholine receptor [1] of 12 RU.

B18: 5mer-719 (peptide)
peptide: KISER
Take B18: in the test with acetylcholine receptor [1], the Binding affinity (RU) was 21 RU.

B19: 5mer-1028 (peptide)
peptide: RMAMR
B19 came in with a Binding affinity (RU) with acetylcholine receptor [1] of 28 RU.

B20: 6mer-1-271 (peptide)
peptide: RRQVSK
In the test with acetylcholine receptor [2], B20 returned a Binding affinity (RU) of 122 RU.

B21: 6mer-1-270 (peptide)
peptide: KRGLRR
B21 came in with a Binding affinity (RU) in the test with acetylcholine receptor [2] of 149 RU.

B22: 5mer-737 (peptide)
peptide: RINVR
In the test with acetylcholine receptor [1], B22 registered a Binding affinity (RU) of 13 RU.

B23: 5mer-1020 (peptide)
peptide: KCKVK
B23 had a Binding affinity (RU) with acetylcholine receptor [1] of 12 RU.

B24: 5mer-1030 (peptide)
peptide: RISDK
Consider B24, for which the Binding affinity (RU) in the test with acetylcholine receptor [1] came out at 18 RU.

B25: 5mer-734 (peptide)
peptide: KATER
Regarding B25, the Binding affinity (RU) with acetylcholine receptor [1] was determined as 16 RU.

B26: 5mer-723 (peptide)
peptide: RASPR
Regarding B26, in the test with acetylcholine receptor [1], the Binding affinity (RU) was found to be 22 RU.

B27: 5mer-726 (peptide)
peptide: KATMK
As for B27, the Binding affinity (RU) with acetylcholine receptor [1] came out at 33 RU.

B28: 5mer-730 (peptide)
peptide: KFCNK
B28 had a Binding affinity (RU) with acetylcholine receptor [1] of 27 RU.

B29: 5mer-738 (peptide)
peptide: KTPMK
The molecule B29 came in with a Binding affinity (RU) with acetylcholine receptor [1] of 29 RU.

B30: 5mer-736 (peptide)
peptide: KKHHR
As for B30, the Binding affinity (RU) with acetylcholine receptor [1] came out at 24 RU.

B31: 6mer-1-273 (peptide)
peptide: KKQVSK
Take B31: the Binding affinity (RU) in the test with acetylcholine receptor [2] is 137 RU.

B32: 5mer-1024 (peptide)
peptide: KIDNK
B32 displayed a Binding affinity (RU) with acetylcholine receptor [1] of 26 RU.

B33: 5mer-721 (peptide)
peptide: RYSKK
As to B33, in the test with acetylcholine receptor [1], the Binding affinity (RU) was 22 RU.

B34: 5mer-1026 (peptide)
peptide: RNAVR
With B34, the Binding affinity (RU) in the test with acetylcholine receptor [1] worked out at 20 RU.

B35: 5mer-1040 (peptide)
peptide: KTPWR
In the case of B35, the Binding affinity (RU) in the test with acetylcholine receptor [1] is 17 RU.

B36: 5mer-1034 (peptide)
peptide: RFAKK
B36 returned a Binding affinity (RU) with acetylcholine receptor [1] of 14 RU.

B37: 5mer-1027 (peptide)
peptide: KNTNR
The molecule B37 had a Binding affinity (RU) with acetylcholine receptor [1] of 28 RU.

B38: 5mer-1023 (peptide)
peptide: RYCKK
For the molecule B38, in the test with acetylcholine receptor [1], the Binding affinity (RU) came to 13 RU.

B39: 5mer-1017 (peptide)
peptide: RCTWK
Take B39: the Binding affinity (RU) with acetylcholine receptor [1] turned out to be 24 RU.

B40: 5mer-743 (peptide)
peptide: KYAFR
In the test with acetylcholine receptor [1], B40 showed a Binding affinity (RU) of 15 RU.

B41: 5mer-1045 (peptide)
peptide: KMDEK
Regarding B41, the Binding affinity (RU) with acetylcholine receptor [1] worked out at 22 RU.

B42: 5mer-740 (peptide)
peptide: RMMGK
On to B42, for which, in the test with acetylcholine receptor [1], the Binding affinity (RU) was found to be 21 RU.

B43: 5mer-745 (peptide)
peptide: RMEIK
Take B43: the Binding affinity (RU) with acetylcholine receptor [1] was 14 RU.

B44: 5mer-724 (peptide)
peptide: KTTAK
B44 registered a Binding affinity (RU) in the test with acetylcholine receptor [1] of 14 RU.

B45: 5mer-1042 (peptide)
peptide: RCCAK
Consider B45, for which the Binding affinity (RU) with acetylcholine receptor [1] is 28 RU.

B46: 5mer-727 (peptide)
peptide: KMDAR
In the test with acetylcholine receptor [1], B46 registered a Binding affinity (RU) of 31 RU.

B47: 5mer-1019 (peptide)
peptide: RFKFK
B47: the Binding affinity (RU) with acetylcholine receptor [1] came to 28 RU.

B48: 6mer-1-272 (peptide)
peptide: KKQVSR
As to B48, the Binding affinity (RU) in the test with acetylcholine receptor [2] amounted to 139 RU.

B49: 5mer-733 (peptide)
peptide: KTCDR
For the molecule B49, the Binding affinity (RU) with acetylcholine receptor [1] was 23 RU.

B50: 5mer-728 (peptide)
peptide: KPHIK
In turn, B50 had a Binding affinity (RU) with acetylcholine receptor [1] of 19 RU.

B51: 5mer-735 (peptide)
peptide: RHCER
For B51, the Binding affinity (RU) with acetylcholine receptor [1] came to 11 RU.

B52: 5mer-1018 (peptide)
peptide: KFWAK
B52 showed a Binding affinity (RU) in the test with acetylcholine receptor [1] of 20 RU.

B53: 6mer-1-269 (peptide)
peptide: RKRRQR
For the molecule B53, in the test with acetylcholine receptor [2], the Binding affinity (RU) was 142 RU.

B54: 5mer-1043 (peptide)
peptide: KFEMK
Regarding B54, the Binding affinity (RU) with acetylcholine receptor [1] turned out to be 15 RU.

B55: 5mer-1038 (peptide)
peptide: KCCKR
Take B55: the Binding affinity (RU) in the test with acetylcholine receptor [1] is 17 RU.

B56: 5mer-742 (peptide)
peptide: RNSDK
In turn, B56 displayed a Binding affinity (RU) in the test with acetylcholine receptor [1] of 11 RU.

B57: 5mer-732 (peptide)
peptide: KIMWR
In the test with acetylcholine receptor [1], B57 had a Binding affinity (RU) of 22 RU.

B58: 5mer-1046 (peptide)
peptide: KHTMR
As to B58, in the test with acetylcholine receptor [1], the Binding affinity (RU) is 19 RU.

B59: 5mer-1037 (peptide)
peptide: KKSFR
As to B59, the Binding affinity (RU) in the test with acetylcholine receptor [1] worked out at 28 RU.

B60: 5mer-716 (peptide)
peptide: KINVR
Take B60: in the test with acetylcholine receptor [1], the Binding affinity (RU) amounted to 25 RU.

B61: 5mer-1047 (peptide)
peptide: KAHMR
With B61, the Binding affinity (RU) with acetylcholine receptor [1] turned out to be 23 RU.

B62: 5mer-725 (peptide)
peptide: RNADR
Regarding B62, the Binding affinity (RU) with acetylcholine receptor [1] turned out to be 19 RU.

B63: 5mer-747 (peptide)
peptide: RKTDK
For B63, the Binding affinity (RU) with acetylcholine receptor [1] is 31 RU.

B64: 5mer-717 (peptide)
peptide: KCKFR
In the test with acetylcholine receptor [1], B64 gave a Binding affinity (RU) of 20 RU.

B65: 5mer-720 (peptide)
peptide: KDPKR
As for B65, the Binding affinity (RU) with acetylcholine receptor [1] stood at 32 RU.

B66: 5mer-1035 (peptide)
peptide: KEHVR
B66 returned a Binding affinity (RU) in the test with acetylcholine receptor [1] of 19 RU.

B67: 5mer-744 (peptide)
peptide: KTEAK
Turning to B67, the Binding affinity (RU) with acetylcholine receptor [1] was determined as 32 RU.

B68: 5mer-739 (peptide)
peptide: KDCPR
For the molecule B68, the Binding affinity (RU) with acetylcholine receptor [1] worked out at 16 RU.

B69: 5mer-1029 (peptide)
peptide: KADIK
B69: the Binding affinity (RU) with acetylcholine receptor [1] amounted to 25 RU.

B70: 5mer-1041 (peptide)
peptide: RDWFK
On to B70, for which the Binding affinity (RU) with acetylcholine receptor [1] was 27 RU.

B71: 5mer-1044 (peptide)
peptide: RDCFK
In the test with acetylcholine receptor [1], B71 showed a Binding affinity (RU) of 22 RU.
